Test results: patent US20240002495A1 (MITSUBISHI TANABE PHARMA, published 2024)

T1: 6His-AviTag-linked cynomolgus monkey IL-33 (residues 112 to 269) (cynomolgus monkey, UniProt O95760 112-269 (human entry), biotin on the AviTag portion (BirA) in the SPR of Example 7; used without biotinylation in Example 10)
T1 construct: GenBank EHH57404 printed; also called cynomolgus monkey IL-33 protein; mature cynomolgus monkey IL-33
T1 chain: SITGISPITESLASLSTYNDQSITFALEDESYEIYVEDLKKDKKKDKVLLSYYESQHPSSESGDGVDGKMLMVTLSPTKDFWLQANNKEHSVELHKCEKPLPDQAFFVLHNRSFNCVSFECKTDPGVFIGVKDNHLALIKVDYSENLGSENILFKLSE

T2: biotinylated 6His tag-AviTag-linked mature human IL-33 (residues 112 to 270) (human, UniProt O95760 112-270, biotin on the AviTag portion (BirA))
T2 construct: made in E. coli; also called biotinylated human IL-33 protein
T2 sequence: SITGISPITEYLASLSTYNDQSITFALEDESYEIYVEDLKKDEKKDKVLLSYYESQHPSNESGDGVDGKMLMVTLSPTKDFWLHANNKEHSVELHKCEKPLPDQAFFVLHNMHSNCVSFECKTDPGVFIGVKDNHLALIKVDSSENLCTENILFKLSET


Key:
[1] = molecular target: T1, 6His-AviTag-linked cynomolgus monkey …; experiment: SPR, IL-33 on chip, Fab supernatant as analyte
Experimental: (§1) The library after the enrichment was used to construct a library of Escherichia coli secreting and expressing Fab. The culture supernatants of several hundreds of clones of Escherichia coli were subjected to measurement of dissociation rate constant (koff) by surface plasmon resonance (SPR) (ProteOn XPR36, available from Bio-Rad Laboratories, Inc.). The biotinylated human IL-33 protein (4 μg/mL) and cynomolgus monkey IL-33 protein (4 μg/mL) were loaded as ligands on a sensor chip (NLC sensor chip, available from Bio-Rad Laboratories, Inc.), to immobilize the human IL-33 protein at an amount equivalent to 1300 to 1600 RU, and the cynomolgus monkeyIL-33 protein at an amount equivalent to 1100 to 1500 RU. The culture supernatant of Escherichia coli was then loaded thereon as analyte to obtain a sensorgram with association phase of one minute and dissociation phase of 10 to 30 minutes. The sensorgram was subjected to interspot correction and blank correction using an SPR data analysis program (ProteOn Manager v3.1.0, available from Bio-Rad Laboratories, Inc.), and then values of koff were determined by off-rate analysis of Langmuir model.

[2] = molecular target: T2, biotinylated 6His tag-AviTag-linked …; experiment: SPR, IL-33 on chip, Fab supernatant as analyte
Experimental: as §1

Binder | Cynomolgus Monkey IL-33 Binding Amount (RU) [1] | koff [1] | Human IL-33 Binding Amount (RU) [2] | koff [2]
A00-0070 (Fab) (Fab, V domains shown, parental clone as Fab; also called V29; parental clone (Fab)) VH: EVQLLESGGGLVQPGGSLRLSCAASGFTFSDYYMNWVRQAPGKGLEWVSSISSSSSYIYYADSVKGRFTISRDNSKNTLYLQMNSLRAEDTAVYYCARDIGGMDVWGQGTLVTVSS VL: QSVLTQPPSASGTPGQRVTISCTGSSSNIGAVYNVHWYQQLPGTAPKLLIYRNNQRPSGVPDRFSGSKSGTSASLAISGLRSEDEADYYCQSYDSSRWVFGGGTKLTVL | 270 RU | 0.00522 s⁻¹ | 571 RU | 0.00427 s⁻¹
A10-1C04 (Fab) (Fab, V domains shown, Fab secreted by E. coli, tested as culture supernatant; also called V1) VH: EVQLLESGGGLVQPGGSLRLSCAASGFTFSDYYMNWVRQAPGKGLEWVSSISRYSSYIYYADSVKGRFTISRDNSKNTLYLQMNSLRAEDTAVYYCARDIGGMDVWGQGTLVTVSS VL: QSVLTQPPSASGTPGQRVTISCTGSSSNIGAVYDVHWYQQLPGTAPKLLIYRNNQRPSGVPDRFSGSKSGTSASLAISGLRSEDEADYYCQTYDSSRWVFGGGTKLTVL | 20 RU | 0.000165 s⁻¹ | 26 RU | ≤ 1e-05 s⁻¹
A13-1F07 (Fab) (Fab, V domains shown, Fab secreted by E. coli, tested as culture supernatant; also called V6) VH: EVQLLESGGGLVQPGGSLRLSCAASGFTFSVYYMNWVRQAPGKGLEWVSSISRYSGYVYYADSVKGRFTISRDNSKNTLYLQMNSLRAEDTAVYYCARDIGGMDVWGQGTLVTVSS VL: QSVLTQPPSASGTPGQRVTISCTGSSSNIGAVYNVHWYQQLPGTAPKLLIYRNNQRPSGVPDRFSGSKSGTSASLAISGLRSEDEADYYCQSYDSRRWVFGGGTKLTVL | 151 RU | 3.48e-05 s⁻¹ | 112 RU | 1e-05 s⁻¹
A13-1G05 (Fab) (Fab, V domains shown, Fab secreted by E. coli, tested as culture supernatant; also called V7) VH: EVQLLESGGGLVQPGGSLRLSCAASGFTFSDYYVNWVRQAPGKGLEWVSSISRYSGYVYYADSVKGRFTISRDNSKNTLYLQMNSLRAEDTAVYYCARDIGGMDVWGQGTLVTVSS VL: QSVLTQPPSASGTPGQRVTISCTGSSSNIGAVYNVHWYQQLPGTAPKLLIYRNNQRPSGVPDRFSGSKSGTSASLAISGLRSEDEADYYCQSYDSSRWVFGGGTKLTVL | 80 RU | 5.45e-05 s⁻¹ | 59 RU | 1e-05 s⁻¹
A12-1H08 (Fab) (Fab, V domains shown, Fab secreted by E. coli, tested as culture supernatant; also called V4) VH: EVQLLESGGGLVQPGGSLRLSCAASGFTFSDYYMDWVRQAPGKGLEWVSSISRASSYVYYADSVKGRFTISRDNSKNTLYLQMNSLRAEDTAVYYCARDIGGMDVWGQGTLVTVSS VL: QSVLTQPPSASGTPGQRVTISCTGSSSNIGAVYNVHWYQQLPGTAPKLLIYRNNQRPSGVPDRFSGSKSGTSASLAISGLRSEDEADYYCQSYDSSRWVFGGGTKLTVL | 102 RU | 7.51e-05 s⁻¹ | 77 RU | 1e-05 s⁻¹
A12-1H04 (Fab) (Fab, V domains shown, Fab secreted by E. coli, tested as culture supernatant; also called V3) VH: EVQLLESGGGLVQPGGSLRLSCAASGFTFSDYYMDWVRQAPGKGLEWVSSISRYSGYVYYADSVKGRFTISRDNSKNTLYLQMNSLRAEDTAVYYCARDIGGMDVWGQGTLVTVSS VL: QSVLTQPPSASGTPGQRVTISCTGSSSNIGAVYNVHWYQQLPGTAPKLLIYRNNQRPSGVPDRFSGSKSGTSASLAISGLRSEDEADYYCQSYDSSRWVFGGGTKLTVL | 131 RU | 4.83e-05 s⁻¹ | 94 RU | 1.94e-05 s⁻¹
A12-1E04 (Fab) (Fab, V domains shown, Fab secreted by E. coli, tested as culture supernatant; also called V2) VH: EVQLLESGGGLVQPGGSLRLSCAASGFTFSDYYMNWVRQAPGKGLEWVSSISRYSGYVYYADSVKGRFTISRDNSKNTLYLQMNSLRAEDTAVYYCARDIGGMDVWGQGTLVTVSS VL: QSVLTQPPSASGTPGQRVTISCTGSSSNIGAVYDVHWYQQLPGTAPKLLIYRNNQRPSGVPDRFSGSKSGTSASLAISGLRSEDEADYYCQSYDSSRWVFGGGTKLTVL | 512 RU | 5.58e-05 s⁻¹ | 414 RU | 2.19e-05 s⁻¹
A13-1F05 (Fab) (Fab, V domains shown, Fab secreted by E. coli, tested as culture supernatant; also called V5) VH: EVQLLESGGGLVQPGGSLRLSCAASGFTFSDYYMNWVRQAPGKGLEWVSSISRYSGYIYYADSVKGRFTISRDNSKNTLYLQMNSLRAEDTAVYYCARDIGGMDVWGQGTLVTVSS VL: QSVLTQPPSASGTPGQRVTISCTGSSSNIGAVYNVHWYQQLPGTAPKLLIYRNNQRPSGVPDRFSGSKSGTSASLAISGLRSEDEADYYCQSYDSSRWVFGGGTKLTVL | 171 RU | 5.79e-05 s⁻¹ | 127 RU | 1.32e-05 s⁻¹
A00-0036 (Fab) (Fab, V domains shown, parental clone as Fab; also called V30; parental clone (Fab)) VH: EVQLLESGGGLVQPGGSLRLSCAASGFTFSNYYMHWVRQAPGKGLEWVSSISSSSSYIYYADSVKGRFTISRDNSKNTLYLQMNSLRAEDTAVYYCARLGTRHDAFDIWGQGTLVTVSS VL: QSVLTQPPSASGTPGQRVTISCSGSSSNIGNNAVNWYQQLPGTAPKLLIYASNMRRLGVPDRFSGSKSGTSASLAISGLRSEDEADYYCAAWDDSQKAVVFGGGTKLTVL | 59 RU | 0.0347 s⁻¹ | 78 RU | 0.0152 s⁻¹
A25-2B02 (Fab) (Fab, V domains shown, Fab secreted by E. coli, tested as culture supernatant; also called V10) VH: EVQLLESGGGLVQPGGSLRLSCAASGFTFSNYYMHWVRQAPGKGLEWVSSISARSSYIYYADSVKGRFTISRDNSKNTLYLQMNSLRAEDTAVYYCARLATRNNAFDIWGQGTLVTVSS VL: QSVLTQPPSASGTPGQRVTISCSGSSSNIGRNAVNWYQQLPGTAPKLLIYASNMRVLGVPDRFSGSKSGTSASLAISGLRSEDEADYYCWAWDDSQKAVVFGGGTKLTVL | 237 RU | 1e-05 s⁻¹ | 256 RU | 1e-05 s⁻¹
A25-2C06 (Fab) (Fab, V domains shown, Fab secreted by E. coli, tested as culture supernatant; also called V12) VH: EVQLLESGGGLVQPGGSLRLSCAASGFTFSNYYMHWVRQAPGKGLEWVSSISARSSYIYYADSVKGRFTISRDNSKNTLYLQMNSLRAEDTAVYYCARLATRNNAFDIWGQGTLVTVSS VL: QSVLTQPPSASGTPGQRVTISCSGSSSNIGRNAVNWYQQLPGTAPKLLIYASNMRVIGVPDRFSGSKSGTSASLAISGLRSEDEADYYCGAWDDSQKRYVFGGGTKLTVL | 501 RU | 1.59e-05 s⁻¹ | 480 RU | 1.36e-05 s⁻¹
A25-2C02 (Fab) (Fab, V domains shown, Fab secreted by E. coli, tested as culture supernatant; also called V15) VH: EVQLLESGGGLVQPGGSLRLSCAASGFTFSNYYMHWVRQAPGKGLEWVSSISARSSYIYYADSVKGRFTISRDNSKNTLYLQMNSLRAEDTAVYYCARLATRNNAFDIWGQGTLVTVSS VL: QSVLTQPPSASGTPGQRVTISCSGSSSNIGRNAVNWYQQLPGTAPKLLIYASNMRVSGVPDRFSGSKSGTSASLAISGLRSEDEADYYCWAWDDSQKVGVFGGGTKLTVL | 839 RU | 1e-05 s⁻¹ | 930 RU | 1e-05 s⁻¹
A23-1A05 (Fab) (Fab, V domains shown, Fab secreted by E. coli, tested as culture supernatant; also called V8) VH: EVQLLESGGGLVQPGGSLRLSCAASGFTFSNYYMHWVRQAPGKGLEWVSSISARSRYHYYADSVKGRFTISRDNSKNTLYLQMNSLRAEDTAVYYCARLATRHNAFDIWGQGTLVTVSS VL: QSVLTQPPSASGTPGQRVTISCSGSSSNIGNNAVSWYQQLPGTAPKLLIYASNMRVIGVPDRFSGSKSGTSASLAISGLRSEDEADYYCGAWDDSQKALVFGGGTKLTVL | 54 RU | 2.61e-05 s⁻¹ | 52 RU | 1.58e-05 s⁻¹
A25-2C07 (Fab) (Fab, V domains shown, Fab secreted by E. coli, tested as culture supernatant; also called V13) VH: EVQLLESGGGLVQPGGSLRLSCAASGFTFSNYYMHWVRQAPGKGLEWVSSISARSSYIYYADSVKGRFTISRDNSKNTLYLQMNSLRAEDTAVYYCARLATRNNAFDIWGQGTLVTVSS VL: QSVLTQPPSASGTPGQRVTISCSGSSSNIGNNAVNWYQQLPGTAPKLLIYASNMRGSGVPDRFSGSKSGTSASLAISGLRSEDEADYYCAAWDDSQKGQVFGGGTKLTVL | 330 RU | 7.37e-05 s⁻¹ | 334 RU | 3.41e-05 s⁻¹
